B1: Cross309×PDL1 (bispecific antibody, human IgG1, kappa, L234A L235A)
scFv: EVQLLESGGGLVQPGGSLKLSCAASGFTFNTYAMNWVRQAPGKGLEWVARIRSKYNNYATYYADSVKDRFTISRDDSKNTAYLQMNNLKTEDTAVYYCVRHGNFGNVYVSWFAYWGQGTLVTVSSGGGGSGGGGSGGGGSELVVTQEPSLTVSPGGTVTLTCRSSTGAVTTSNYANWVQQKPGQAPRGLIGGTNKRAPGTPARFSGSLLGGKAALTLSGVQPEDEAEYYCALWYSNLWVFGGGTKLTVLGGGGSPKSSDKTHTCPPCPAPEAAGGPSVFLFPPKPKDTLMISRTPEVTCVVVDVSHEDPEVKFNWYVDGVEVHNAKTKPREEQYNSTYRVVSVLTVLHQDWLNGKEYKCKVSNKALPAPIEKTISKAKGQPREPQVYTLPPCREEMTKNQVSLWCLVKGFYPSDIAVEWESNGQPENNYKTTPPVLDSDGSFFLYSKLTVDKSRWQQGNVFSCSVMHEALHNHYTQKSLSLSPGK
heavy: QVQLVQSGAEVKKPGASVKVSCKASGYSFTGYYMHWVRQAPGQGLEWIGRINPYNGATTYSQNFKDRATMTVDTSISTAYMELSRLRSDDTAVYYCVPTGMGYFLMDYWGQGTLVTVSSASTKGPSVFPLAPSSKSTSGGTAALGCLVKDYFPEPVTVSWNSGALTSGVHTFPAVLQSSGLYSLSSVVTVPSSSLGTQTYICNVNHKPSNTKVDKKVEPKSCDKTHTCPPCPAPEAAGGPSVFLFPPKPKDTLMISRTPEVTCVVVDVSHEDPEVKFNWYVDGVEVHNAKTKPREEQYNSTYRVVSVLTVLHQDWLNGKEYKCKVSNKALPAPIEKTISKAKGQPREPQVCTLPPSREEMTKNQVSLSCAVKGFYPSDIAVEWESNGQPENNYKTTPPVLDSDGSFFLVSKLTVDKSRWQQGNVFSCSVMHEALHNHYTQKSLSLSPGK
light: DIQLTQSPSFLSASVGDRVTITCKASQDVGSAVVWYQQKPGKAPKLLIYWASTRHTGVPSRFSGSGSGTEFTLTISSLQPEDFATYFCQQFTSYPTFGQGTKLEIKRTVAAPSVFIFPPSDEQLKSGTASVVCLLNNFYPREAKVQWKVDNALQSGNSQESVTEQDSKDSTYSLSSTLTLSKADYEKHKVYACEVTHQGLSSPVTKSFNRGEC
B2: Cross325×PDL1 (bispecific antibody, human IgG1, kappa, L234A L235A)
scFv: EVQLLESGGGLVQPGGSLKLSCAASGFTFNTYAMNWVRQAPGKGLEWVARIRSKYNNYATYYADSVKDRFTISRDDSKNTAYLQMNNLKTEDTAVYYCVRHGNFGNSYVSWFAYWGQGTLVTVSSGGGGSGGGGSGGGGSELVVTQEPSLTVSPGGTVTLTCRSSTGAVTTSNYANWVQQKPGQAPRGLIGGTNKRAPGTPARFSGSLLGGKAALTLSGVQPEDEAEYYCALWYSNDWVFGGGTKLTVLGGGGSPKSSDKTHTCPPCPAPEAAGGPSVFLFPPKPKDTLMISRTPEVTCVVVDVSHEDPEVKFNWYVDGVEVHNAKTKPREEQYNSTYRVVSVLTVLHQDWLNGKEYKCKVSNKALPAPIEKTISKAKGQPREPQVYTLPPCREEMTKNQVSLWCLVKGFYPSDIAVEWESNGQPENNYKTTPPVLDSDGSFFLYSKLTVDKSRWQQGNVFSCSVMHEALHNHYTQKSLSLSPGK
heavy: B1 heavy
light: B1 light

What was measured:
[1] = target: T1, PDL1 on A-375 melanoma cells, HCT-15 colorectal cancer cells and A549 lung cancer cells (UniProt Q9NZQ7 19-290, limits assumed); assay: flow cytometry, A-375 cells, binding ratio % [panel A]
T1 construct: whole, on cells
T1 sequence (Q9NZQ7 19-290 limits assumed): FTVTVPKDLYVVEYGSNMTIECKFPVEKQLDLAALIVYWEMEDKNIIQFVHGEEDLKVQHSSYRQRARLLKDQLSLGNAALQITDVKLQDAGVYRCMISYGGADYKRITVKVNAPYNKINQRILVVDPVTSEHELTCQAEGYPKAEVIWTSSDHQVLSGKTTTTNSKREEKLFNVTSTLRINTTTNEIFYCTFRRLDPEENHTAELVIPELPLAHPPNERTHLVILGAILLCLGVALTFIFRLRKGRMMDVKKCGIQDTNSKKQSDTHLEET
Experimental: (2) The tumor cells were diluted to 2×10⁶/ml with PBS and added to a 1.5 ml EP tube at a volume of 100 μl/tube, and goat serum was added thereto at 10 μl/tube. The cells were blocked at 4° C. for 30 min. The serially diluted bispecific antibodies, Cross3×Trop2, Cross303×Trop2, Cross307×Trop2, Cross308×Trop2, Cross309×Trop2, Cross310×Trop2, Cross311×Trop2, Cross312×Trop2, Cross313×Trop2, Cross314×Trop2, Cross316×Trop2, Cross317×Trop2, Cross318×Trop2, Cross323×Trop2, Cross325×Trop2, Cross326×Trop2, and Cross3×PDL1, Cross303×PDL1, Cross307×PDL1, Cross308×PDL1, Cross309×PDL1, Cross310×PDL1, Cross311×PDL1, Cross312×PDL1, Cross313×PDL1, Cross314×PDL1, Cross316×PDL1, Cross317×PDL1, Cross318×PDL1, Cross323×PDL1, Cross325×PDL1, Cross326×PDL1, and control hIgG1LALA (purchased from Bio-Tech) were added and incubated at 4° C. for 30 min. 1 ml of PBS was added to the EP tube, followed by centrifugation at 3500 rpm for 5 min at 4° C. The supernatant was discarded, and the cells were washed again with PBS. After centrifugation, the supernatant was completely discarded, and the cells were resuspended with PBS at 100 μl/tube. Alexa-647-labeled goat anti-human IgG secondary antibody (purchased from Jackson lab) was added at 1 μl/tube and incubated at 4° C. in the dark for 30 min. The cells were washed twice with PBS, and the supernatant was completely discarded after centrifugation. The cells were resuspended with PBS at 200 μl/tube and assay was performed using the flow cytometry.

[2] = target: T1, PDL1 on A-375 melanoma cells, HCT-15 …; assay: flow cytometry, A549 cells, MFI [panel B]
How it was run: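 Cells were blocked with goat serum at 4° C for 30 min, then incubated with serially diluted bispecific antibodies or hIgG1LALA control at 4° C for 30 min. Bound antibody was detected with Alexa-647 anti-human IgG (4° C, 30 min, dark) and read by flow cytometry.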

PDL1 protein [3] = target: T2, PDL1 protein (UniProt Q9NZQ7 19-238); assay: ELISA, coated PDL1 protein, OD450 [panel A]
T2 construct: Bought recombinant protein
T2 sequence (Q9NZQ7 19-238 limits assumed): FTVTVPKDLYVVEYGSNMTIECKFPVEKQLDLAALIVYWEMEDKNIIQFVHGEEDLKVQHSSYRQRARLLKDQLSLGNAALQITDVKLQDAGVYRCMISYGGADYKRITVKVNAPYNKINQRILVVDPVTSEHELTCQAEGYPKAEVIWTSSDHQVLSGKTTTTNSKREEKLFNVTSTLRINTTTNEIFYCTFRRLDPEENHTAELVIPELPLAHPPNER
Experimental: (§1) (3) PDL1 protein (purchased from Acro) was diluted to 2 μg/ml with PBS buffer, added to a 96-well plate at a volume of 100 μL/well, and placed at 4° C. overnight. The PBS buffer in the 96-well plate was aspirated, and the plate was washed 6 times with PBST (pH 7.2 PBS containing 0.10% Tween 20) buffer. Then, PBS/10% BSA was added at 200 μL/well and incubated at 37° C. for 2 h for blocking. The blocking solution was removed, and the plate was washed six times with PBST. Then, the to-be-tested bispecific antibodies serially diluted with PBST/0.05% BSA, Cross3×PDL1, Cross303×PDL1, Cross307×PDL1, Cross308×PDL1, Cross309×PDL1, Cross310×PDL1, Cross311×PDL1, Cross312×PDL1, Cross313×PDL1, Cross314×PDL1, Cross316×PDL1, Cross317×PDL1, Cross318×PDL1, Cross323×PDL1, Cross325×PDL1, Cross326×PDL1, and control IgG1LALA (purchased from Bio-Tech) were added at 100 μL/well, and incubated at 37° C. for 1 h. The reaction system was removed, and the plate was washed 6 times with PBST. Then, the cells were incubated at 37° C. for 1 h with HRP (horseradish peroxidase)-labeled anti-human secondary antibody (Fab specific) (purchased from Sigma) serially diluted with PBST/0.05% BSA at 100 μL/well. After the plate was washed six times with PBST, TMB (tetramethylbenzidine) was added at 80 μL/well and incubated at room temperature for 3 min. 4 M sulfuric acid was added at 80 μL/well to terminate the reaction. The absorbance was read at 450 nm using a microplate reader.

CD3E&D protein = target: T3, CD3E&D protein (UniProt P04234 22-105); assay: ELISA, coated CD3E&D protein, OD450 [panel B]
T3 construct: Purchased from Acro; also called CD3 E&D antigens; CD3E&D antigen protein
T3 sequence (chain, as listed by the source limits assumed, chain 1 of 2): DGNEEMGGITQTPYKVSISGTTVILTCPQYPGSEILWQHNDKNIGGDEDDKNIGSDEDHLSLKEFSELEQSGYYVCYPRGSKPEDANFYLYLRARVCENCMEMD
T3 sequence (P04234 22-105 limits assumed, chain 2 of 2): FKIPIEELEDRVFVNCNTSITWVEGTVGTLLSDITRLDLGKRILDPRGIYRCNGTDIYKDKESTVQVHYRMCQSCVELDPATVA
Excerpt: In this example, the binding properties of the CD3×Trop2 and CD3×PDL1 bispecific antibody (the production method and the amino acid sequences of the heavy and light chains were shown in Example 1) were detected by using ELISA. The CD3E&D, Trop2, or PDL1 protein was coated onto 96-well plates by inventors, and the strength of the signal after the addition of the antibody was used to determine the binding properties of the antibody and the corresponding protein.
(1) CD3E&D protein (purchased from Acro) was diluted to 2 μg/ml with PBS buffer, added to a 96-well plate at a volume of 100 μL/well, and placed at 4° C. overnight. The PBS buffer in the 96-well plate was aspirated, and the plate was washed 6 times with PBST (pH 7.2 PBS containing 0.1% Tween 20) buffer. Then, 200 μL/well PBS/10% BSA was added and incubated at 37° C. for 2 h for blocking. The blocking solution was removed, and the plate was washed 6 times with PBST. Then, the to-be-tested bispecific antibodies serially diluted with PBST/0.05% BSA, Cross3×Trop2, Cross303×Trop2, Cross307×Trop2, Cross308×Trop2, Cross309×Trop2, Cross310×Trop2, Cross311×Trop2, Cross312×Trop2, Cross313×Trop2, Cross314×Trop2, Cross316×Trop2, Cross317×Trop2, Cross318×Trop2, Cross323×Trop2, Cross325×Trop2, Cross326×Trop2, Cross3×PDL1, Cross303×PDL1, Cross307×PDL1, Cross308×PDL1, Cross309×PDL1, Cross310×PDL1, Cross311×PDL1, Cross312×PDL1, Cross313×PDL1, Cross314×PDL1, Cross316×PDL1, Cross317×PDL1, Cross318×PDL1, Cross323×PDL1, Cross325×PDL1, Cross326×PDL1, and control IgG1LALA (purchased from Bio-Tech) were added at 100 μL/well, and incubated at 37° C. for 1 h. The reaction system was removed, and the plate was washed 6 times with PBST. Then, the cells were incubated at 37° C. for 1 h with HRP (horseradish peroxidase)-labeled anti-human secondary antibody (Fab specific) (purchased from Sigma) diluted with PBST/0.05% BSA at 100 μL/well. After the plate was washed six times with PBST, 80 μL/well TMB (tetramethylbenzidine) was added and incubated at room temperature for 3 min. […] The absorbance was read at 450 nm using a microplate reader.

CD3 on CD8 T cells = target: T4, CD3 on CD8 T cells (Homo sapiens (Human), UniProt P07766 23-207); assay: flow cytometry, CD8 T cells in PBMCs, binding ratio % [panel A]
T4 construct: Native CD3 complex on CD8 T cells among PBMCs; also called T cells (PBMCs gated with anti-human CD8 antibody)
T4 sequence (P07766 23-207 limits assumed): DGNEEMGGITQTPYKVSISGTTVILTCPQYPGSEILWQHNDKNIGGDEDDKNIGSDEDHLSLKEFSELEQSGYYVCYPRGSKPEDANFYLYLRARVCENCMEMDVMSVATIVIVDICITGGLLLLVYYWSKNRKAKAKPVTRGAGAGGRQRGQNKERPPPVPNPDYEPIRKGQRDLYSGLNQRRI
Experimental: (1) PBMCs were diluted to 2×10⁶/ml with PBS and added to a 1.5 ml EP tube at 100 μl/tube, goat serum was added thereto at 10 μl/tube. The cells were blocked at 4° C. for 30 min. The serially diluted bispecific antibodies, Cross3×Trop2, Cross303×Trop2, Cross307×Trop2, Cross308×Trop2, Cross309×Trop2, Cross310×Trop2, Cross311×Trop2, Cross312×Trop2, Cross313×Trop2, Cross314×Trop2, Cross316×Trop2, Cross317×Trop2, Cross318×Trop2, Cross323×Trop2, Cross325×Trop2, Cross326×Trop2, Cross3×PDL1, Cross313×PDL1, Cross316×PDL1, Cross325×PDL1, and control hIgG1LALA (purchased from Bio-Tech) were added and incubated at 4° C. for 30 min. 1 ml of PBS was added to the EP tube, followed by centrifugation at 3500 rpm for 5 min at 4° C. The supernatant was discarded, and the system was washed again with PBS. After centrifugation, the supernatant was discarded, and the cells were resuspended with PBS at 100 μl/tube. 1 μl/tube Alexa-647-labeled goat anti-human IgG secondary antibody (purchased from Jackson lab) and 0.5 μl/tube PerCP-Cy5.5-labeled anti-human CD8 antibody were added and incubated at 4° C. in the dark for 30 min. The cells were washed twice with PBS. After centrifugation, the supernatant was discarded. The cells were resuspended with 200 μl/tube of PBS and assay is performed by flow cytometry.

PDL1 protein [4] = target: T2, PDL1 protein; assay: ELISA, coated PDL1 protein, OD450 [panel B]
Experimental: as §1

Binder	EC50 (read off the curve) [1]	EC50 (read off the curve) [2]	EC50 (read off the curve) (PDL1 protein [3])	EC50 (read off the curve) (CD3E&D protein)	EC50 (read off the curve) (CD3 on CD8 T cells)	EC50 (read off the curve) (PDL1 protein [4])
B1	~0.4 µg/mL	~1 µg/mL	~0.2 µg/mL			
B2		~1 µg/mL		~0.7 µg/mL	~0.4 µg/mL	~0.1 µg/mL

Reference: US20260125472A1 (HEFEI TG IMMUNOPHARMA, published 2026)
